Literature values in publication PMC9331682.

Target: PD-1 (Homo sapiens) (UniProt Q15116)
Sequence (Q15116 25-170): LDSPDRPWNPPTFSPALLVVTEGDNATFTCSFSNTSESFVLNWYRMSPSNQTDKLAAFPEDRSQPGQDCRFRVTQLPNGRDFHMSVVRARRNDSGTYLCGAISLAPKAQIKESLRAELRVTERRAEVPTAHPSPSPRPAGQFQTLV

Substance: Dostarlimab
- Kd: 0.3 nM
